Test results from patent US7521053 (dated 2009).
Positions count from the first letter of the chain named.

T1: mAng-2 (mouse, UniProt O35608)
T1 chain: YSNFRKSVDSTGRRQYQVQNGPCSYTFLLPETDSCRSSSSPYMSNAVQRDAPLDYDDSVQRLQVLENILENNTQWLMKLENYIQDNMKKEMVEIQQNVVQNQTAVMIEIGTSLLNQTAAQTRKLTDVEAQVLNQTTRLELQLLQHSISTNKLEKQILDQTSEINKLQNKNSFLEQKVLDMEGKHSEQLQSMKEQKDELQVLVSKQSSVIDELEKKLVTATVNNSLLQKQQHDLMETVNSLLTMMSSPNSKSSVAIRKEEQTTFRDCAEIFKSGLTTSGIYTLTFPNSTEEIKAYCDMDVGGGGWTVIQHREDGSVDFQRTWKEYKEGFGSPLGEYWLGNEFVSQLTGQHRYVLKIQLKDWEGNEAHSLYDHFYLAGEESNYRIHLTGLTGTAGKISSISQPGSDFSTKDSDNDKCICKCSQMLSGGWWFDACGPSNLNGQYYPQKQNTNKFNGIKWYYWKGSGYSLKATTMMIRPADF

T2: hAng-2 (human, UniProt O15123)
T2 chain: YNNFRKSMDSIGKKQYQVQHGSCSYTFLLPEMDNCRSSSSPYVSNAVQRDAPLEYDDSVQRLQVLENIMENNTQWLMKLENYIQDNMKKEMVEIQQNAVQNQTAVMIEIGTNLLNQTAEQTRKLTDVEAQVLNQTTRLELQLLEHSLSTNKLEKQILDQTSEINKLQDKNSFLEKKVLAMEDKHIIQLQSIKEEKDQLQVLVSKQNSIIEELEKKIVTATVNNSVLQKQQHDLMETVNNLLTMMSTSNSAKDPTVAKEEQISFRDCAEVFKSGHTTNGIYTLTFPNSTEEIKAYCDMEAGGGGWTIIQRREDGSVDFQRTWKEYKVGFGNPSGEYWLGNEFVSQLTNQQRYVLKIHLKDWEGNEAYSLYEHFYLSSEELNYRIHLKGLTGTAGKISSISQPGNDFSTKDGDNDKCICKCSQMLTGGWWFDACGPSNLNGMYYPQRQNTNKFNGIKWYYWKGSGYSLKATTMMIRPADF

T3: hAng-1 (human, UniProt Q15389)
T3 chain: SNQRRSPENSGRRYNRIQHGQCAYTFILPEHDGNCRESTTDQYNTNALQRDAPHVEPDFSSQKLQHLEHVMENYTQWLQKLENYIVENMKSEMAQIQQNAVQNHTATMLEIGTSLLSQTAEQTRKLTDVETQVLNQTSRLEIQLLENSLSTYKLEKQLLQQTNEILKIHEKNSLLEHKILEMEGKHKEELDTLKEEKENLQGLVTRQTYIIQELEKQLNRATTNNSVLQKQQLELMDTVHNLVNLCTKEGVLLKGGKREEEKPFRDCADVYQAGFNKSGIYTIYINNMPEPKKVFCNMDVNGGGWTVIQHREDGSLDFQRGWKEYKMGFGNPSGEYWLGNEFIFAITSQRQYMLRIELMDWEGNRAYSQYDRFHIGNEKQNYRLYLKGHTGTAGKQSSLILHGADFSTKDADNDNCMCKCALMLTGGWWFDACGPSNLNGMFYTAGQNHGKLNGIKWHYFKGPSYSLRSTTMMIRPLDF

B1: Ab 544 (antibody, V domains shown)
VH: QVQLVQSGAEVKKPGASVKVSCKASGGTFSSYAISWVRQAPGQGLEWMGGIIPIFGTANYAQKFQGRVTITADESTSTAYMELSSLRSEDTAVYYCARFESGYWGDAFDIWGQGTMVTVSS
VL: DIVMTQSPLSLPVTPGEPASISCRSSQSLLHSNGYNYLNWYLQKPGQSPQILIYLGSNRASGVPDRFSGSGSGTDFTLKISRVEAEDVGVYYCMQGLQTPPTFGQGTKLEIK
B2: Ab 546 (antibody, V domains shown)
VH: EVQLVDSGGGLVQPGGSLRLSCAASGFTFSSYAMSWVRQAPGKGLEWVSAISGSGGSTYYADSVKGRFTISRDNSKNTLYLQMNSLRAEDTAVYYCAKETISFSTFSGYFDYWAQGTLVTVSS
VL: QSVLTQPSSVSEAPRQRVTISCSGSASNIGANGVSWYHQVPGKAPRLLLSHDGLVTSGVPDRLSVSKSGTSASLAISGLHSDDEGDYYCAVWDDSLNAVVFGGGTKLTVL
B3: Ab 533 (antibody, V domains shown)
VH: EVQLVQSGGGVVQPGRSLRLSCAASGFTFSSYGMHWVRQAPGKGLEWVSYISSSGSTIYYADSVKGRFTISRDNAKNSLYLQMNSLRAEDTAVYYCARDLLDYDILTGYGYWGQGTLVTVSS
VL: SYELTQPPSVSVSPGQTARITCSGDALPKQYAYWYQQKPGQAPVLVIYKDSERPSGIPERFSGSSSGTTVTLTISGVQAEDEADYYCQSADSSHVVFGGGTKLTVL
B4: Ab 565 (antibody, V domains shown)
VH: QVQLVQSGAEVKKPGSSVKVSCKASGGTFSSYAISWVRQAPGQGLEWMGGIIPIFGTANYAQKFQGRVTITADESTSTAYMELSSLRSEDTAVYYCARSPIYYDILTGIDAFDIWGQGTMVTVSS
VL: EIVLTQSPGTLSLSPGERATLSCRASQSVSSSSLAWYQQKPGQAPRLLVYAASSRATGIPDRFSGSGSGTDFTLTISRLEPEDFAVYYCQHYGSSPRTFGQGTKVEIK
B5: Ab 535 (antibody, V domains shown)
VH: B1 VH with A16S, E74K, R98A, E100S, S101P, G102F, Y103T, W104E, G105T
VL: QSVLTQPPSVSAAPGQKVTISCSGSNSNIGNNFVSWYQQLPGTAPKLLVYDNNKRPSGIPDRFSGSKSGTSATLGITGLQTGDEADYYCGTWDSSLSAAEVVFGGGTKLTVL
B6: Ab 553 (antibody, V domains shown)
VH: QVQLVQSGAEVKKPGASVKVSCKASGYTFTSYAMHWVRQAPGQRLEWMGWINAGNGNTKYSQKFQGRVTITRDTSASTAYMELSGLRSEDTAVYYCARGVDDYGGNSWAFDIWGQGTMVTVSS
VL: DIVMTQSPLSLPVTPGEPASISCRSSQSLLHSNGYNYLDWYLQKPGQSPQLLIYLGSNRASGVPDRFTGSGSATDFTLRISRVEAEDVGVYYCMQALQTPLTFGGGTKVEIK
B7: Ab 555 (antibody, V domains shown)
VH: QVQLQESGGGVVQPGRSLRLSCAASGFTFSSYAMHWVRQAPGKGLEWVAVISYDGSNKYYADSVKGRFTISRDNSKNTLYLQMNSLRAEDTAVYYCARSASDHYYDSSGYYSDAFDIWGQGTMVTVSS
VL: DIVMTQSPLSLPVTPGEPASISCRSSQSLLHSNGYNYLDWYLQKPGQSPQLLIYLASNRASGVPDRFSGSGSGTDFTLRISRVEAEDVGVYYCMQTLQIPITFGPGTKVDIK
B8: Ab 540 (antibody, V domains shown)
VH: QVQLVQSGAEVKKPGSSVKVSCKASGGTFSSYAISWVRQAPGQGLEWMGGIIPILGIANYAQKFQGRVTITADKFTSTAYMELSSLGSEDTAVYYCARAVPGTEDAFDIWGQGTMVTVSS
VL: QSVLTQPPSVSAAPGQKVTISCSGSSSNIGANYVSWYQQLPGTAPKLLIYNNNKRPSGIPDRFSGSKSDTSATLGITGLQTGDEADYYCGAWDSSLSASWVFGGGTKLTVL
B9: Ab 531 (antibody, V domains shown)
VH: EVQLVQSGAEVKKPGSSVKVSCKASGGTFSSYAISWVRQAPGQGLEWMGGIIPILGIANYAQKFQGRVTITADKSTNTAYMELTSLTSDDTAVYYCARDREDTAMVFNYWGQGTLVTVSS
VL: B8 VL with I20V, A31N, N51D, D69G, A91T, S99F
B10: Ab 543 (antibody, V domains shown)
VH: QVQLVQSGAEVKKPGSSVKVSCKASGGTFSSYAISWVRQAPGQGLEWMGRIIPILGIANYAQKFQGRVTITADKSTSTAYMELSSLRSEDTAVYYCARPYYDFWSGPGGMDVWGQGTTVTVSS
VL: not shown
B11: Ab 551 (antibody, V domains shown)
VH: QVQLVQSGAEVKKPGSSVKVSCKASGGTFSSYAISWVRQAPGQGLEWMGGIIPIFGTANYAQKFQGRVTITADESTSTAYMELSSLRSEDTAVYYCARGYDFWSGYSLDAFDIWGQGTMVTVSS
VL: not shown
B12: Ab 537 (antibody, V domains shown)
VH: QVQLVQSGAEVKKPGSSVKVSCKASGGTFSSYAISWVRQAPGQGLEWMGGIIPILGIANYAQKFQGRVTITADKSTSTAYMELSGLGSEDTAVYYCARGSSDAAVAGMWGQGTLVTVSS
VL: QSVLTQPPSVSAAPGQDVTISCSGNNSNIGNNYVSWYQQVPGTAPKLLVYDNHKRPSGISDRFSGSKSDTSATLDITGLQPGDEADYYCGTWDTSLSANWVFGGGTKLTVL
B13: Ab 528 (antibody, V domains shown)
VH: QVQLVQSGAEVKKPGSSVKVSCKASGGTFSSYAISWVRQAPGQGLEWMGGIIPIFGTANYAQKFQGRVTITADESTSTAYMELSSLRSEDTAVYYCARGVVGDFDWLSFFDYWGQGTLVTVSS
VL: SYELTQPPSVSVSPGQTASITCSGDKLGYTYTSWFQQKPGQSPVLVIFQDFKRPSGIPERFSGSNSGNTATLTISGTQAMDEADYYCQAWDSTTAVVFGTGTKVTVL

Target: T1, mAng-2
Experiment: competition ELISA (Tie2-Fc)

| IC50 [nM] | Binder |
| --- | --- |
| 1.82 | B1 |
| 1.09 | B2 |
| 0.08 | B3 |
| 0.26 | B4 |

Target: T2, hAng-2
Experiment: competition ELISA (Tie2-Fc)

| IC50 [nM] | Binder |
| --- | --- |
| 0.97 | B1 |
| 0.37 | B2 |
| 0.3 | B3 |
| 0.26 | B4 |

Target: T3, hAng-1
Experiment: competition ELISA (Tie2-Fc)

| IC50 [nM] | Binder |
| --- | --- |
| 23.3 | B1 |

Target: T3, hAng-1
Experiment: competition ELISA (no inhibition)

| binding result | Binder |
| --- | --- |
| no binding | B5 |
| no binding | B6 |
| no binding | B7 |
| no binding | B8 |
| no binding | B9 |
| no binding | B2 |
| no binding | B10 |
| no binding | B11 |
| no binding | B3 |
| no binding | B12 |
| no binding | B13 |
| no binding | B4 |
